In test [1] the target is HLA-B*08:01. Kind of test: IEDB peptide-MHC binding, purified MHC/competitive/radioactivity; filed as Kd, often an IC50 or EC50 that approximates it; ≥ and ≤ were set here for values at or beyond the usual limits of such assays.
Test [2] deals with HLA-B*53:01. Described as above.
Test [3] deals with HLA-A*26:01. The test is described as above.
The target in test [4] is HLA-A*24:02. Described as above. The following applies: source organism: SARS coronavirus Tor2.
Test [5] concerns the target HLA-A*23:01. The description is as above. The following applies: source organism: SARS coronavirus Tor2.
Test [6] deals with HLA-A*29:02. The test is described as above. The following applies: source organism: SARS coronavirus Tor2.
Test [7] addresses HLA-A*30:02. The description is as above. The following applies: source organism: SARS coronavirus Tor2.
The target of test [8] is HLA-A*31:01. The test can be described thus: IEDB peptide-MHC binding, purified MHC/direct/fluorescence; filed as Kd, often an IC50 or EC50 that approximates it; ≥ and ≤ were set here for values at or beyond the usual limits of such assays.
Test [9] addresses HLA-A*11:01. Described as above. The following applies: source organism: SARS-CoV1.
The target of test [10] is HLA-B*08:01. Described as above. Conditions: source organism: SARS-CoV1.
The target of test [11] is HLA-A*01:01. Described as above. The following applies: source organism: SARS-CoV1.
Test [12] addresses HLA-B*58:01. The description is as above. The following applies: source organism: SARS-CoV1.
Test [13] concerns the target HLA-A*02:01. Described as above.
Test [14] deals with HLA-B*15:01. The test is described as above.
Test [15] has as its target HLA-A*03:01. The description is as above. Conditions: source organism: SARS-CoV1.
For test [16], the target named is HLA-B*51:01. The test can be described thus: IEDB peptide-MHC binding, purified MHC/competitive/radioactivity; filed as Kd, often an IC50 or EC50 that approximates it; ≥ and ≤ were set here for values at or beyond the usual limits of such assays.
Test [17] addresses HLA-B*35:01. The test is described as above.
Test [18] has as its target HLA-A*26:01. The test can be described thus: IEDB peptide-MHC binding, purified MHC/direct/fluorescence; filed as Kd, often an IC50 or EC50 that approximates it; ≥ and ≤ were set here for values at or beyond the usual limits of such assays. The following applies: source organism: Mycobacterium tuberculosis.
Test [19] deals with HLA-A*26:01. The test can be described thus: IEDB peptide-MHC binding, purified MHC/competitive/fluorescence; filed as Kd, often an IC50 or EC50 that approximates it; ≥ and ≤ were set here for values at or beyond the usual limits of such assays.
For test [20], the target named is HLA-A*69:01. The test can be described thus: IEDB peptide-MHC binding, purified MHC/direct/fluorescence; filed as Kd, often an IC50 or EC50 that approximates it; ≥ and ≤ were set here for values at or beyond the usual limits of such assays. Conditions: source organism: Salmonella enterica subsp. enterica serovar Typhimurium.
For test [21], the target named is HLA-A*02:03. The test can be described thus: IEDB peptide-MHC binding, purified MHC/competitive/radioactivity; filed as Kd, often an IC50 or EC50 that approximates it; ≥ and ≤ were set here for values at or beyond the usual limits of such assays. The following applies: source organism: Dengue virus 4 Philippines/H241/1956.
The target of test [22] is HLA-B*44:02. The description is as above. Conditions: source organism: Dengue virus 3 Martinique/1243/1999.
Where [23] appears, read: source organism: Vaccinia virus WR.
The mark [24] stands for this setting: source organism: Dengue virus 1 Brazil/97-11/1997.
[25] abbreviates: source organism: Dengue virus 4 Philippines/H241/1956.
[26] abbreviates: source organism: Dengue virus 3 Martinique/1243/1999.
Setting [27] is: source organism: Dengue virus 2 Jamaica/1409/1983.
[28] abbreviates: source organism: Salmonella enterica subsp. enterica serovar Typhimurium.

Consider 22 sequences from the Immune Epitope Database (IEDB).

Usually Kd stands for the constant that tells how readily two partners part at equilibrium.

For MYKSRVERV, the dissociation constant Kd in test [1] (setting [23]) was determined as 46.5 nM.

Take MSIPATLFVW: the Kd in test [2] (setting [24]) is 414 nM; in test [3] (setting [24]), 15600 nM.

As to LAKRFSRGL, the Kd in test [1] (source organism: Dengue virus 3 Singapore/8120/1995) is 962 nM.

In the case of FMGRIRSVY, the Kd in test [3] (source organism: SARS coronavirus Tor2) is 2240 nM; in test [4] it was at least 55900 nM; in test [5], at least 77800 nM; in test [6], 1.7 nM; in test [7], 0.157 nM; in test [8] (source organism: SARS-CoV1), 123 nM. Moreover, the Kd in test [9] was 18200 nM; in test [10] it was 604 nM; in test [11], 5870 nM; in test [12], 6000 nM; in test [13] (source organism: SARS-CoV1), 9160 nM; in test [14] (source organism: SARS-CoV1), 393 nM. In test [15], this sequence yielded a Kd of 2340 nM.

Turning to VKPKGKVVDL, the Kd in [1] (setting [25]) turned out to be 2150 nM.

Consider LPEDIEQMAN, for which the Kd in [2] (setting [26]) was 2100 nM; in test [16] (setting [26]) it was at least 69600 nM; in test [17] (setting [26]), 883 nM.

For the sequence MPSMKRFRRE, the Kd is at least 20600 nM in test [2] (setting [27]), at least 69600 nM in [16] (setting [27]) and at least 30900 nM in test [17] (setting [27]).

Consider WPLNEGIMAV, for which the Kd in test [16] (source organism: Dengue virus 1 Singapore/S275/1990) stood at 304 nM.

In the case of LPAIVREAIK, the Kd is 4650 nM in [2] (setting [27]), at least 69600 nM in test [16] (setting [27]) and 5500 nM in test [17] (setting [27]).

The sequence LVIDNLYGF registered a Kd in [18] of 12.2 nM.

Regarding SIFLIFSII, in test [1] (source organism: Vaccinia virus Copenhagen), the Kd is 858 nM.

With RNALDNLAVL, the Kd in test [1] (source organism: Dengue virus 2 16681-PDK53) worked out at 6430 nM.

DLYRMYSRY registered a Kd in test [19] (source organism: Actinobacillus pleuropneumoniae serovar 1 str. 4074) of 301 nM.

Regarding SIHAHHQWM, in [1] (setting [24]), the Kd is 349 nM.

With GPLVAGGLLI, the Kd in test [16] (setting [26]) was found to be 6030 nM.

On to SIRYRQRLI, for which the Kd in [1] (setting [23]) is 218 nM.

As to GMFGGCFAA, the Kd in test [8] (setting [28]) was found to be 1220 nM; in [13] (setting [28]), 10 nM; in test [14] (setting [28]), 161 nM; in test [20] it was 2770 nM.

For the sequence GIMAVGLVSL, the Kd amounted to 24.1 nM in test [21] and 1230 nM in test [1] (setting [25]).

Take IPITAAAWYL: the Kd in test [1] (setting [27]) was found to be 3760 nM; in test [16] (setting [27]) it was 6230 nM.

As to NPKFFKVYL, in test [1] (setting [23]), the Kd is 190 nM.

In the case of YTALFSGVSW, the figures for the Kd in [2] (setting [26]), in test [3] (setting [26]) and in test [22] were 18.2 nM, 916 nM and 2070 nM, respectively.

In [19] (source organism: Influenza A virus (A/Wellington/22/2001(H3N2))), ETIVLLRAF returned a Kd of 27.6 nM.
